Data set [1] in a line: western blot of extracellular vesicles. The settings on record: glycan changed form; control: 231-EVs. (In general: In western blotting, separated proteins are transferred to a membrane and probed.)
Data set [2] is described as follows: flow cytometry and immunofluorescence. The settings on record: glycan changed form; control: 231 cells.
The nature of data set [3]: CHX (20 µM) chase, PD-L1 half-life. Conditions: glycan changed form; control: 231 cells.
A short description of data set [4]: western blot, flow cytometry, confocal microscopy. Conditions: glycan changed form; control: MCF7 cells.

As to “PD-L1: 231-MGAT3-EVs (MGAT3 overexpression)”, the expression_or_secretion entry in data set [1] was “decreases”.
Regarding PD-L1: 231-MGAT3 (MGAT3 overexpression), the expression_or_secretion entry in data set [2] is listed as “decreases”. In addition, the degradation_or_half_life result in data set [3] was “decreases”.
On to PD-L1: MCF7-shM3 (MGAT3 shRNA), for which the expression_or_secretion result in data set [4] is given as “increases”.

The values above are taken from publication PMC12323189.
